Measured values: US20070093443

Key:
Complement C4 (human) = target: T1, Complement C4 (human)
T1 chain 1: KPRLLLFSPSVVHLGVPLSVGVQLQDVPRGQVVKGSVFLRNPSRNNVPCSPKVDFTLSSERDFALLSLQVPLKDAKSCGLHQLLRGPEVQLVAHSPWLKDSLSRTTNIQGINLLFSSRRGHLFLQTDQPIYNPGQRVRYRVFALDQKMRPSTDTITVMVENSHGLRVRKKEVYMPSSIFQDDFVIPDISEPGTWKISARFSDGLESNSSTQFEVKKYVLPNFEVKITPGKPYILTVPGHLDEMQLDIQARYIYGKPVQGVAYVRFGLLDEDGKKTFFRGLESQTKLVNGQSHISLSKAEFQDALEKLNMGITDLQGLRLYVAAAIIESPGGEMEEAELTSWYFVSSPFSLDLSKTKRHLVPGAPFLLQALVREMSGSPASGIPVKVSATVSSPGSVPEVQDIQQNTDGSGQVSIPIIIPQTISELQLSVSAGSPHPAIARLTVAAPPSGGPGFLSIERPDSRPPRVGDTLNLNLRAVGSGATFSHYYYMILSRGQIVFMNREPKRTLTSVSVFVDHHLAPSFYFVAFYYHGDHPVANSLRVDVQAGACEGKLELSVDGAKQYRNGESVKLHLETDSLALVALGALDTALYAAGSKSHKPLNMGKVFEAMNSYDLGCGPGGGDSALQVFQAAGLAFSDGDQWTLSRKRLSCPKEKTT
T1 chain 2: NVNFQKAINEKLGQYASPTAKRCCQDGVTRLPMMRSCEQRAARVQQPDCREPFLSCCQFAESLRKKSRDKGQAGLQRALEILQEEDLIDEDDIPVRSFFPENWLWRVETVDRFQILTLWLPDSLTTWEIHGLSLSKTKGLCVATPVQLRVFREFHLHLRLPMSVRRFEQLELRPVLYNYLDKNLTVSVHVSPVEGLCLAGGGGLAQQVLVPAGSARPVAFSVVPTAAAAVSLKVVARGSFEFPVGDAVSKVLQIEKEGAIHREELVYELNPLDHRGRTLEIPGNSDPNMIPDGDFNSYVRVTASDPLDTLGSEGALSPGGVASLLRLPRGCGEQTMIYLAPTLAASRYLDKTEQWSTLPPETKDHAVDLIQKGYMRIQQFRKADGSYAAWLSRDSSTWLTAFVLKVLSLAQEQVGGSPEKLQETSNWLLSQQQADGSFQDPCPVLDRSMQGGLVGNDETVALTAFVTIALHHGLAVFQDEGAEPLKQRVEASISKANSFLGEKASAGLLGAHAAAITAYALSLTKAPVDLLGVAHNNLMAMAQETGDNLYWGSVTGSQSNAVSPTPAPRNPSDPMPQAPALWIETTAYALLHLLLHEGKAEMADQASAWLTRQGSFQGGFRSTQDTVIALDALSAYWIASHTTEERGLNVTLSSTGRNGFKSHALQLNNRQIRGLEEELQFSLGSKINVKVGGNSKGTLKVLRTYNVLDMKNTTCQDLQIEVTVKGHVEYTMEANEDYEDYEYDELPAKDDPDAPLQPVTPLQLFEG
T1 chain 3: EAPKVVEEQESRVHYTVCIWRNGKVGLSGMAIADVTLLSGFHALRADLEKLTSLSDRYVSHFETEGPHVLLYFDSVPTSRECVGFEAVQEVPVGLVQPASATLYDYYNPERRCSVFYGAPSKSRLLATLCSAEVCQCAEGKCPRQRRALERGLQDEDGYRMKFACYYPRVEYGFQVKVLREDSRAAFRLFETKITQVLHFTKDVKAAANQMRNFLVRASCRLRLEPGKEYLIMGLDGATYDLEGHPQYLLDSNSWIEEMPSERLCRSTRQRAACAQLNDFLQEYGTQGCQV

Ac-GLAR-AMC = target: T2, Ac-GLAR-AMC
T2 chain: GLAR

Complement C2 (human) = target: T3, Complement C2 (human)
T3 chain: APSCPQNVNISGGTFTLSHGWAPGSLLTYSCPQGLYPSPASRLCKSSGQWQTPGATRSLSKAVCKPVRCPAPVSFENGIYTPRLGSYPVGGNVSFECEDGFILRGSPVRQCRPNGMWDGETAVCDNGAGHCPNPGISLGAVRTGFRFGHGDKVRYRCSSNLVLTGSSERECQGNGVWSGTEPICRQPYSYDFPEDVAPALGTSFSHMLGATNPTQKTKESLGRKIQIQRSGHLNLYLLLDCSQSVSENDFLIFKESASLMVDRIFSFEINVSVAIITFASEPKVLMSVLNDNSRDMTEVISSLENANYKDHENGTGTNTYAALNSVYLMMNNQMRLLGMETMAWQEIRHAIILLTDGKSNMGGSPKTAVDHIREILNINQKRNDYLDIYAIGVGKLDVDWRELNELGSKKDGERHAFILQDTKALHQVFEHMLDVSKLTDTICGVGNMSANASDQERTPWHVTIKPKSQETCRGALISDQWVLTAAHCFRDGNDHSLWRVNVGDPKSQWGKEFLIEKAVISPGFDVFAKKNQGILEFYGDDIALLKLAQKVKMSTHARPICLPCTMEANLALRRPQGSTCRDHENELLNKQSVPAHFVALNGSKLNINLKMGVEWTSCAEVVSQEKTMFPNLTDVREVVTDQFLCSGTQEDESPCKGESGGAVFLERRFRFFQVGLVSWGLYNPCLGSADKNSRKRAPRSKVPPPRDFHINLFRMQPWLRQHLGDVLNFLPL

Ac-SLGR-AMC = target: T4, Ac-SLGR-AMC
T4 chain: SLGR

Ac-RQAR-AMC = target: T5, Ac-RQAR-AMC
T5 chain: RQAR

Chain of Complement C5 (human) (chain, as listed by the source, chain 1 of 2): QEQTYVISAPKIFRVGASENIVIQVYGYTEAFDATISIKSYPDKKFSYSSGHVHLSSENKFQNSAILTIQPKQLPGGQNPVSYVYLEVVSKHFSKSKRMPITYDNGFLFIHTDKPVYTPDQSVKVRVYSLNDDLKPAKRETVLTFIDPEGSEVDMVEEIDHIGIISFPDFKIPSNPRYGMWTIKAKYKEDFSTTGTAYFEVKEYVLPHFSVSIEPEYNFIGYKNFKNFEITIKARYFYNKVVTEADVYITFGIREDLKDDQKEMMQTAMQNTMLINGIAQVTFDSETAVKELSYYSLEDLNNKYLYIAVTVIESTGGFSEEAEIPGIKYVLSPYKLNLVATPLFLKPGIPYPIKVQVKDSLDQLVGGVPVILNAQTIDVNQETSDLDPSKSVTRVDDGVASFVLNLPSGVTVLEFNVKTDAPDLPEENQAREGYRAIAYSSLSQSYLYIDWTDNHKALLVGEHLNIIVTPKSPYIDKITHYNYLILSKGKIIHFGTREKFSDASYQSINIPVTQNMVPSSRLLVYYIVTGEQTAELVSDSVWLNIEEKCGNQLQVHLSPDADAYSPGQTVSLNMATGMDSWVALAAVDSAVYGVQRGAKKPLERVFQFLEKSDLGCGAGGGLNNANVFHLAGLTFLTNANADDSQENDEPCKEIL
Chain of Complement C5 (human) (chain, as listed by the source, chain 2 of 2): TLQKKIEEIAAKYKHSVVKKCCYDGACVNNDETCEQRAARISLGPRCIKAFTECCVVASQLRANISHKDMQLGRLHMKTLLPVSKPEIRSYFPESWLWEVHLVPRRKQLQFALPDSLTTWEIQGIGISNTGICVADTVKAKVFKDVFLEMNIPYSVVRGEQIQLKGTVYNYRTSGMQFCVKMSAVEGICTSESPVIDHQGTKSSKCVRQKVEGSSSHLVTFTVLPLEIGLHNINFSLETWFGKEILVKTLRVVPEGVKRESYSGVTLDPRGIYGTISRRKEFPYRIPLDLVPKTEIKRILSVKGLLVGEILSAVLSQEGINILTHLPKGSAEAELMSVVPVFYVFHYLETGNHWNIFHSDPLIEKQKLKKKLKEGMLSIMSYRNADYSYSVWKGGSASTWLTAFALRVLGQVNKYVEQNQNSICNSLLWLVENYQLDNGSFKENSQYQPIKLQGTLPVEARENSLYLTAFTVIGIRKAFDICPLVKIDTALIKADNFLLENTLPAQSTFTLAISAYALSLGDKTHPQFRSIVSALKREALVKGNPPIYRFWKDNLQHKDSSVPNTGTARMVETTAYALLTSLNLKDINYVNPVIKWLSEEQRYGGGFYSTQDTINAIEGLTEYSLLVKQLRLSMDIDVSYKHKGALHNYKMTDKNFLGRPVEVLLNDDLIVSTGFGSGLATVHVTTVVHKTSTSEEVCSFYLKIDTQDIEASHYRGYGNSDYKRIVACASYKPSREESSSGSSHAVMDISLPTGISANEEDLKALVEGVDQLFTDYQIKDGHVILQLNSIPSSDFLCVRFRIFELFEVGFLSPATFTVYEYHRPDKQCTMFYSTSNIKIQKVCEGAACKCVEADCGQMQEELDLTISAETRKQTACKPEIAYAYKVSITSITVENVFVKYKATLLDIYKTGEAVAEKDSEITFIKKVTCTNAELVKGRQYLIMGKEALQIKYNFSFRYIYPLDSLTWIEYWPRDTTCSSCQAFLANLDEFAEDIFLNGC

| Protein | Fraction of Hemolysis (protease-incubated purified complement protein added back to depleted sera) (Complement C4 (human)) | kcat/Km (specificity constant), fluorogenic peptide cleavage (Ac-GLAR-AMC) [M⁻¹ s⁻¹] | Fraction of Hemolysis (protease-incubated purified complement protein added back to depleted sera) (Complement C2 (human)) | kcat/Km (specificity constant) of cleavage of full length C2, in gel kinetics (SDS-PAGE densitometry time course) (Complement C2 (human)) [M⁻¹ s⁻¹] | kcat/Km (specificity constant), fluorogenic peptide cleavage (Ac-SLGR-AMC) [M⁻¹ s⁻¹] | Fraction of Hemolysis (protease-incubated purified complement protein added back to depleted sera) (Complement C3 (human)) | kcat/Km (specificity constant), fluorogenic peptide cleavage (Ac-RQAR-AMC) [M⁻¹ s⁻¹] | Fraction of Hemolysis (protease-incubated purified complement protein added back to depleted sera) (Complement C5 (human)) | C3 Western blot of samples of the alternative hemolysis assay (human plasma) (Complement C3 (human)) |
| --- | --- | --- | --- | --- | --- | --- | --- | --- | --- |
| modified MT-SP1 CB155 (Y146D/K224F) protease domain (protein) VVGGTDADEGEWPWQVSLHALGQGHICGASLISPNWLVSAAHCYIDDRGFRYSDPTQWTAFLGLHDQSQRSAPGVQERRLKRIISHPFFNDFTFDYDIALLELEKPAEYSSMVRPICLPDASHVFPAGKAIWVTGWGHTQDGGTGALILQKGEIRVINQTTCENLLPQQITPRMMCVGFLSGGVDSCQGDSGGPLSSVEADGRIFQAGVVSWGDGCAQRNFPGVYTRLPLFRDWIKENTGV | 0.944 | 3500 | -0.00104 | 72000 | 3700 | 0.072 | 91000 | 0.943 | – |
| modified MT-SP1 CB42 (Y146E) protease domain (protein) VVGGTDADEGEWPWQVSLHALGQGHICGASLISPNWLVSAAHCYIDDRGFRYSDPTQWTAFLGLHDQSQRSAPGVQERRLKRIISHPFFNDWTFDYDIALLELEKPAEYSSMVRPICLPDASHVFPAGKAIWVTGWGHTQEGGTGALILQKGEIRVINQTTCENLLPQQITPRMMCVGFLSGGVDSCQGDSGGPLSSVEADGRIFQAGVVSWGDGCAQRNKPGVYTRLPLFRDWIKENTGV | 1.04 | 63000 | 0.0714 | 36000 | 59000 | 0.122 | 1.8e+06 | 1.02 | – |
| modified MT-SP1 CB349 (I41D/Y146D/K224F) protease domain (protein) VVGGTDADEGEWPWQVSLHALGQGHDCGASLISPNWLVSAAHCYIDDRGFRYSDPTQWTAFLGLHDQSQRSAPGVQERRLKRIISHPFFNDFTFDYDIALLELEKPAEYSSMVRPICLPDASHVFPAGKAIWVTGWGHTQDGGTGALILQKGEIRVINQTTCENLLPQQITPRMMCVGFLSGGVDSCQGDSGGPLSSVEADGRIFQAGVVSWGDGCAQRNFPGVYTRLPLFRDWIKENTGV | – | – | – | – | – | – | – | – | cleave C3 as assessed by decreased C3 product as compared to the no protease treated plasma sample |
| modified MT-SP1 CB387 (Y146D/Q175W/K224L) protease domain (protein) VVGGTDADEGEWPWQVSLHALGQGHICGASLISPNWLVSAAHCYIDDRGFRYSDPTQWTAFLGLHDQSQRSAPGVQERRLKRIISHPFFNDFTFDYDIALLELEKPAEYSSMVRPICLPDASHVFPAGKAIWVTGWGHTQDGGTGALILQKGEIRVINQTTCENLLPQWITPRMMCVGFLSGGVDSCQGDSGGPLSSVEADGRIFQAGVVSWGDGCAQRNLPGVYTRLPLFRDWIKENTGV | – | – | – | – | – | – | – | – | cleave C3 as assessed by decreased C3 product as compared to the no protease treated plasma sample |
| modified MT-SP1 CB331 (I41D/Y146D/K224L) protease domain (protein) VVGGTDADEGEWPWQVSLHALGQGHDCGASLISPNWLVSAAHCYIDDRGFRYSDPTQWTAFLGLHDQSQRSAPGVQERRLKRIISHPFFNDFTFDYDIALLELEKPAEYSSMVRPICLPDASHVFPAGKAIWVTGWGHTQDGGTGALILQKGEIRVINQTTCENLLPQQITPRMMCVGFLSGGVDSCQGDSGGPLSSVEADGRIFQAGVVSWGDGCAQRNLPGVYTRLPLFRDWIKENTGV | – | – | – | – | – | – | – | – | cleave C3 as assessed by decreased C3 product as compared to the no protease treated plasma sample |
